Assay results: US11370833B2, “Antibody formulations” (Genentech, Inc., priority 2014, dated 2022)

Tests used:
Format in all cases: physicochemical
[1] = Formulation composition study: FT-NIR percent trehalose crystallization; settings: trehalose 34.2% (wt/v), fast frozen, 12 months at −20° C.
Method: (§1) Fast freezing was accomplished by quench cooling fifty microliter sample aliquots drop-wise into liquid nitrogen. The freezing endpoint was determined by the increased opacity and the sinking of the sphere from the surface into a stainless steel mesh collection basket. After freezing, one-milliliter aliquots of bulk drug substance frozen pellets were removed from the liquid nitrogen and transferred into sterile, pre-chilled 5 cc glass vials. The vials were then stored on frozen CO2, and sealed with 20 mm Lyo-Stoppers. The formulation screen samples were fast frozen in 96-well microplates using liquid nitrogen. Immediately after the microplates were frozen, the samples were nucleated by scratching the ice surface with a 24 gauge needles (BD, Franklin Lakes, N.J.).
The formulation screen sample microplates were stored at two temperatures (−20±2° C., and −40±2° C.). The freezer temperature was monitored using a Yokogawa temperature monitoring system (Yokogawa Meters and Instruments Corporation, Tokyo, Japan).
Sample microplates for SEC analysis were stored isothermally for up to 365 days. Following frozen storage, microplates were thawed on the lab counter bench under ambient conditions (approximately 22° C.) prior to analysis. Control (0 day) samples were thawed immediately following completion of the freezing process. […]
The percent trehalose crystallization was determined using near infrared diffuse reflectance spectroscopy. […] Using these methods, sample NIR spectra were recorded from 10,000-4,000 cm^−1 using 32 averaged scans with 4 cm^−1 resolution on a Nicolet Antaris FT-Near IR Analyzer equipped with an integrating sphere module (Thermo Fisher Scientific, Waltham, Mass.). Percent trehalose crystallization was calculated using normalized peak intensity ratios of bands at 4306 cm^−1 and 4291 cm^−1 (Connolly, B., et al. (2010) Anal. Biochem. 399(1):48-57). […] Low volume (300 microliter) formulation screen samples were lyophilized and then analyzed for percent trehalose crystallization using the same method.

[2] = Turbidity analysis and visual inspection for precipitates; settings: fast freeze samples
Method: The turbidity of the samples was measured by recording the average absorbance from 340-360 nm in a quartz cuvette with 1-cm path length (Eckhardt, B. M., et al. (1991) Pharm. Res. 8:1360-4) on an HP8453 spectrophotometer using Chemstation software (Agilent Technologies, Santa Clara, Calif.). Sterile water for injection was used to blank the instrument prior to analyses. Turbidity analysis of formulation screen samples was performed on a UV transparent, Corning half area, 96-well microplate using Spectramax M2 instrument (Molecular Devices, Sunnyvale). The turbidity was measured against a Sterile Water for Injection blank and the turbidity value measured by recording the average of the absorbance from 340-360 nm.

[3] = FT-NIR trehalose crystallization after frozen storage (freeze rate and storage temperature studies)
Method: To prepare the samples for slow and normal freezing, two milliliter sample aliquots were dispensed into autoclaved 5 cc glass vials and sealed with 20 mm Lyo-Stoppers using aseptic technique in a ventilated biosafety hood with laminar air flow. Slow freezing was accomplished by placing sample vials in a lyophilizer on pre-cooled shelves and held between −1° C. and −3° C. for 24 hours.
(§2) Normal freezing was accomplished by placing sample vials in a freezer at −20° C. until samples were completely frozen. To control for supercooling, ice was nucleated by applying frozen CO2 to the side of each vial until ice formation.
as §1
Samples frozen at the three freeze rates (slow, normal, and fast) by the methods described were transferred to three freezer units with set points of −20° C., −14° C., and −8° C. with a range of ±2° C. for frozen storage. The freezer temperature was monitored using a Yokogawa temperature monitoring system (Yokogawa Meters and Instruments Corporation, Tokyo, Japan). Sample vials were pulled after 0, 1, 2, 3, 6, 9 and 12 months of isothermal, frozen storage and placed on the lab counter bench under ambient conditions (approximately 22° C.) and allowed to thaw prior to analysis.
Samples intended for trehalose crystallization determination were first freeze-dried using a LyoStar II lyophilizer unit controlled by LyoManager II software (FTS Systems, Stone Ridge, N.Y.). The frozen samples were placed on a pre-cooled shelf and held at −35° C. for 7 hours prior to primary drying. Primary drying was achieved under a system pressure of 150 μm Hg by linearly increasing the shelf temperature to 20° C. at a rate of 0.2° C./min, followed by a 40 hour hold at 20° C. Secondary drying was performed by linearly increasing shelf temperature to 30° C. at 0.2° C./min, followed by an 8 hour hold at 30° C. Thermocouples were placed in various sample vials to monitor temperature during freeze-drying. Following secondary drying, sample vials were stoppered while still under vacuum to prevent samples from hydrating prior to analysis. Low volume (300 microliter), formulation screen samples were lyophilized in 96-well glass plates (Zinsser, Germany) using the same lyophilization method.
The percent trehalose crystallization was determined using near infrared diffuse reflectance spectroscopy. Data collection, calibration, and analysis methods used in this study were adapted from previous work focused on characterizing the spectral differences between amorphous trehalose and crystalline trehalose polymorphs (Connolly, B., et al. (2010) Anal. Biochem. 399(1):48-57). Using these methods, sample NIR spectra were recorded from 10,000-4,000 cm^−1 using 32 averaged scans with 4 cm^−1 resolution on a Nicolet Antaris FT-Near IR Analyzer equipped with an integrating sphere module (Thermo Fisher Scientific, Waltham, Mass.). Percent trehalose crystallization was calculated using normalized peak intensity ratios of bands at 4306 cm^−1 and 4291 cm^−1 (Connolly, B., et al. (2010) Anal. Biochem. 399(1):48-57). Data analysis was conducted using a linear regression analysis with MATLAB (R2007a, The MathWorks, Natick, Massachussetts) (Connolly, B., et al. (2010) Anal. Biochem. 399(1):48-57). […]

[4] = Visual trehalose crystallization in frozen trehalose solutions with pH indicating dye; settings: 2.0, 4.0 and 8.0% (wt/v) trehalose, 20 mM histidine-acetate pH 5.5; normal freeze rate, −20° C. for 6 days
Method: Additional solutions were prepared with 0.0, 2.0, 4.0, and 8.0% (wt/v) trehalose in 20 mM histidine-acetate, at pH 5.5, and Water for Injection. Fifty microliters of pHydrion (pH Range: 0-7) pH-indicator dye (Micro Essential Laboratory, NY) was dispensed into a 10 cc glass vial and allowed to evaporate. Approximately four milliliters of the various trehalose formulations were added to the vial and the dye was allowed to dissolve in the solution. Photographs of frozen trehalose solutions were obtained using an Olympus Stylus 770SW digital camera (Olympus America Inc., NJ) in supermacro mode.
as §2
It is of significant interest to understand if trehalose crystallization impacts protein stability at pharmaceutically relevant (≤10% wt/v) concentrations. To evaluate the impact of nominal trehalose concentration on excipient crystallization, solutions were prepared with 0.0, 2.0, 4.0 and 8.0% (wt/v) trehalose dihydrate in the presence of pH indicating dye to better visualize crystallization. The samples were frozen using the normal freeze rate and stored at −20° C. for 6 days.

[5] = Fast freeze, 12 months frozen storage at −8° C.
[6] = Fast freeze, 12 months frozen storage at −14° C.
[7] = Fast freeze, 12 months frozen storage at −20° C.
[8] = Normal freeze, 12 months frozen storage at −8° C.
[9] = Normal freeze, 12 months frozen storage at −14° C.
[10] = Normal freeze, 12 months frozen storage at −20° C.
[11] = Slow freeze, 12 months frozen storage at −8° C.
[12] = Slow freeze, 12 months frozen storage at −14° C.
[13] = Slow freeze, 12 months frozen storage at −20° C.

Molecule: Bevacizumab: recombinant humanized anti-VEGF IgG1 monoclonal antibody; 25 mg/mL in 5.4% trehalose, 51 mM sodium phosphate pH 6.2, 0.04% polysorbate 20
- percent crystallized trehalose ([1]; [bevacizumab]=25 mg/mL): 61%
- percent crystallized trehalose ([1]; [bevacizumab]=100 mg/mL): 47%
- precipitates by turbidity analysis and visual inspection [2]: formation of precipitates
- trehalose crystallization by FT-NIR, fast freeze samples ([3]; 12 month samples, fast freeze): measurable amounts of trehalose crystallization
- trehalose crystallization by FT-NIR, slow and normal freeze samples ([3]; 12 month samples, slow and normal freeze): no measurable amounts of trehalose crystallization
- Amorphous Trehalose [3, 5]: 3.8 % wt/v
- Crystallized Trehalose [3, 5]: 1.6 % wt/v
- Amorphous Trehalose [3, 6]: 2.9 % wt/v
- Crystallized Trehalose [3, 6]: 2.5 % wt/v
- Amorphous Trehalose [3, 7]: 3.0 % wt/v
- Crystallized Trehalose [3, 7]: 2.5 % wt/v
- Amorphous Trehalose [3, 8]: 5.2 % wt/v
- Crystallized Trehalose [3, 8]: 0.3 % wt/v
- Amorphous Trehalose [3, 9]: 5.1 % wt/v
- Crystallized Trehalose [3, 9]: 0.3 % wt/v
- Amorphous Trehalose [3, 10]: 5.1 % wt/v
- Crystallized Trehalose [3, 10]: 0.3 % wt/v
- Amorphous Trehalose [3, 11]: 5.2 % wt/v
- Crystallized Trehalose [3, 11]: 0.2 % wt/v
- Amorphous Trehalose [3, 12]: 5.2 % wt/v
- Crystallized Trehalose [3, 12]: 0.3 % wt/v
- Amorphous Trehalose [3, 13]: 5.1 % wt/v
- Crystallized Trehalose [3, 13]: 0.3 % wt/v

Molecule: OC[C@H]1O[C@H](O[C@H]2O[C@H](CO)[C@@H](O)[C@H](O)[C@H]2O)[C@H](O)[C@@H](O)[C@@H]1O [trehalose]
- percent crystallized trehalose ([1]; [bevacizumab]=0 mg/mL): 86%
- visual trehalose crystallization after induced nucleation [4]: visually observed
- time at which trehalose crystallization reaches a plateau ([3]; frozen storage, data not shown): ≤ 2 weeks
